To fix the notation:
B1: IgG1 b12 EFTAE Fc variant (antibody, V domains shown)
VH: QVQLVQSGAEVKKPGASVKVSCQASGYRFSNFVIHWVRQAPGQRFEWMGWINPYNGNKEFSAKFQDRVTFTADTSANTAYMELRSLRSADTAVYYCARVGPYSWDDSPQDNYYMDVWGKGTTVIVSS
VL: EIVLTQSPGTLSLSPGERATFSCRSSHSIRSRRVAWYQHKPGQAPRLVIHGVSNRASGISDRFSGSGSGTDFTLTITRVEPEDFALYYCQVYGASSYTFGQGTKLERK
B2: IgG1 b12 LALA Fc variant (antibody, V domains shown)
VH: B1 VH
VL: B1 VL
B3: IgG1 b12 EG Fc variant (antibody, V domains shown)
VH: B1 VH
VL: B1 VL
B4: IgG1 b12 KA Fc variant (antibody, V domains shown)
VH: B1 VH
VL: B1 VL
B5: IgG1 b12 (unmodified Fc) (antibody, V domains shown)
VH: B1 VH
VL: B1 VL

The first assay has as its target HIV-1_(YU-2) gp140 trimer (HIV-1 YU-2). Briefly: BLI; kinetic. (In general: In BLI a coated tip is dipped into the sample, and binding shifts an interference pattern.)
As for B1, the Kd was found to be 2.78 nM.
In turn, B2 registered a Kd of 2.06 nM.
Still for that read-out and setting: next, B3: 2.26 nM; B4: 2.56 nM; B5: 1.72 nM.

The target is the same in another assay. In words: BLI; equilibrium.
B1 registered a Kd of 1.93 nM.
The same measure, in the same setting: next, B2: 2.04 nM; B3: 0.9 nM; B4: 2.95 nM.
Molecule B5 yielded a Kd of 2.18 nM.

For orientation: Kd means the concentration at which binding is half-saturated.

The values above are taken from paper PMC8510540 (2021).
